Measured values: US9234001B2, “Cysteine-free efficient Technetium (Tc) or Rhenium (Re) chelating peptide tags and their use” (Commissariat a L'Energie Atomique et aux Energies …, priority 2008, dated 2016)
Ends that are not written are not given here.

Assays:
CHO-SST-2 (mb) = biological target: T1, CHO-SST-2 (mb) (Homo sapiens, UniProt P30874); experiment: Binding to somatostatin receptor, CHO-SST-2 membranes
T1 construct: expressed in transfected cells; host or cells: CHO cell membranes (mb)
Method: After subtraction of the non-specific binding and normalization, data obtained with [^125I][Tyr^1]-somatostatin were analyzed using the Hill equation to estimate the IC50 values.

[1] = tested on: AR4-2J xenografted tumour; conditions: mouse, in vivo
Method: Females Balb/c nude mice weighing 20 g were purchased from Charles River Laboratories (L'Arbresle, France). The mice were kept in a conventional animal facility and had access ad libitum to food and drink. The experimental protocol has been approved by the local ethical committee for animal experimentation.
Mice were implanted subcutaneously with 5-6 millions AR4-2J cells freshly suspended in sterile PBS. […] After 1 h, 4 h or 24 h time period, the mice were sacrificed by ex-sanguination under anaesthesia. Organs of interest, blood and urine were collected and weighted. The radioactivity was measured with a gamma counter.
Two control experiments were also conducted.

[2] = Cysteine challenge of TcO complexes; format: physicochemical; conditions: pH 7.4, 20 h, 310 K
Method: A solution containing 16 μg of lyophilized TcO[UBI 29-41] (SEQ ID NO: 1) was added to 32 μl of Cysteine solution in PBS pH 7.4. Three concentrations of Cysteine solution were used: 100 mM, 15 mM and 1 mM corresponding respectively to a molar ratio Cysteine:Tc-UBI-WT of 333, 53 and 3. The samples were incubated for 20 h at 310 K prior to HPLC and ESI-MS analysis. Similar experiment was performed for TcO[TGRRR] (SEQ ID: NO 22) complex. 13 μg of lyophilized TGRRR(SEQ ID: NO 22)-TcO complex were added to 64 μl of 15 mM Cysteine solution in PBS pH 7.4 corresponding to a TcO[TGRRR] (SEQ ID: NO 22):Cysteine molar ratio of 50. This solution was incubated for 20 h at room temperature prior to HPLC analysis.
To be useful for the in vivo application of the TGRRR sequence (SEQ ID NO: 26) to label peptides or proteins, the TcO[TGRRR] (SEQ ID NO: 27) complex must be stable during 1-3 times the period of ^99mTc. The inventors evaluated the stability of the [TcO]^3+ complexes in the case of the peptide UBI-WT (SEQ ID: NO 1) and TGRRR, (peptide P13; SEQ ID NO: 26). To this end, the inventors performed a Cysteine challenge. 16 μg of the TcO[UBI-WT] was added to 1, 15, and 100 mM solutions of Cysteine at pH 7.4 corresponding respectively to molar ratio of 3, 53 and 333. These samples were incubated for 20 h at 310 K. The mixtures were analyzed by HPLC and LC-MS.

[3] = 30 equivalents of Cysteine; cited from earlier work
[4] = tested on: AR4-2J xenografted tumour; experiment: Whole body section imaging with β-imager; format: in vivo, mice
Method: Full Body section analysis: the mice were injected by caudal vein and sacrificed 4 hours later. For imaging, the mice were anesthesied and then immersed in an −80° C. mixture of dry ice and isopentane to prevent CNT tissue redistribution. After blocking the body in mounting medium, tissue sections (20 μm) were made at −20° C. with a slicing microtome (LEICA Microsystems, France). Sections were kept at room temperature for 2 hours in the presence of silica gel to ensure complete drying.
The quantitative determination of the radioactivity in dried tissue sections and imaging were carried out using a β-imager (Biospace Lab, Paris, France).

T1 sequence (P30874 whole entry): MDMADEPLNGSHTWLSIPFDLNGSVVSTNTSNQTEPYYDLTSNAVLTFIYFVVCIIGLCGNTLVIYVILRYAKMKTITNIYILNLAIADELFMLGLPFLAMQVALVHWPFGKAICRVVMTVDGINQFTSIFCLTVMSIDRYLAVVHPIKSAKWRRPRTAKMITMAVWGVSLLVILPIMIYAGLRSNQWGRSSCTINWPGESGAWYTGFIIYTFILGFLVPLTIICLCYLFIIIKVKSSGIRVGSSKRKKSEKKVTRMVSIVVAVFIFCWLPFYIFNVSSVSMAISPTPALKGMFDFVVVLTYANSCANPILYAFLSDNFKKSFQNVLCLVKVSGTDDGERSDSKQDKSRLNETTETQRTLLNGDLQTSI

With `CC(C)[C@@H]1NC(=O)[C@H](CCCCN)NC(=O)[C@@H](Cc2c[nH]c3ccccc23)NC(=O)[C@H](Cc2ccc(O)cc2)NC(=O)[C@@H](NC(=O)[C@@H](Cc2ccccc2)NC(=O)CNC(=O)CNC(=O)[C@H](CCCNC(=N)N)NC(=O)[C@H](CCCNC(=N)N)NC(=O)[C@H](CCCNC(=N)N)NC(=O)CNC(=O)[C@@H](N)[C@@H](C)O)CSSC[C@@H](C(=O)N[C@H](C(N)=O)[C@@H](C)O)NC1=O` as the molecule, how does the Ki (CHO-SST-2 (mb)) read?
Its Ki is 0.02 nM.

For “TcO[HTGRRR]: [TcO]3+ complex of the TGRRR peptide (P13) (TGRRR-OH; also: TcO complex)”, which “Tumor/Blood Ratio” value [1] is on record?
The value was 1.

What about the “Tumor/Muscle Ratio” value [1] of the same molecule?
Its value is 2.6.

And the “radioactivity in Adrenals” value [1]?
Its value is 2.2 ± 4.7 % ID/g.

And the “radioactivity in Bile” value [1]?
The value was 6.6 ± 2.4 % ID/g.

What about the “radioactivity in Blood” value [1] of the same molecule?
The value was 0.3 ± 0.3 % ID/g.

What about the “radioactivity in Brain” value [1] of the same molecule?
Its value is 0.1 ± 0.2 % ID/g.

And the “radioactivity in Carcass” value [1]?
Its value is 0.2 ± 0.1 % ID/g.

And the “radioactivity in Heart” value [1]?
Its value is 0.7 ± 0.6 % ID/g.

What about the “radioactivity in Intestines” value [1] of the same molecule?
Its value is 1.3 ± 0.8 % ID/g.

And the “radioactivity in Kidneys” value [1]?
The value was 21.9 ± 9.5 % ID/g.

What about the “radioactivity in Liver” value [1] of the same molecule?
The value was 2.1 ± 0.5 % ID/g.

What about the “radioactivity in Lungs” value [1] of the same molecule?
Its value is 0.6 ± 0.8 % ID/g.

What about the “radioactivity in Muscle” value [1] of the same molecule?
The value was 0.8 ± 1.23 % ID/g.

And the “radioactivity in Pancreas” value [1]?
The value was 0.3 ± 0.6 % ID/g.

What about the “radioactivity in Spleen” value [1] of the same molecule?
The value was 0.7 ± 0.6 % ID/g.

What about the “radioactivity in Stomach” value [1] of the same molecule?
Its value is 2.6 ± 2.2 % ID/g.

What about the “radioactivity in Tail” value [1] of the same molecule?
The value was 5.3 ± 4.5 % ID/g.

What about the “radioactivity in Urine” value [1] of the same molecule?
Its value is 8.6 ± 5.5 % ID/g.

What about the “initial [TcO]3+ complex observed” value ([2]; 15 mM Cysteine) of the same molecule?
Its value is 57%.

With “[AGGG]TcO complex: TcO complex of the peptide AGGG (SEQ ID NO: 31), from the literature (also: TcO complex)” as the molecule, how does the “stability against Cysteine” value [3] read?
The value was “completely unstable”.

Which results are given for “TcO[HTGRRRGG-RC-121]: TcO complex of HTGRRRGG-RC-121”?
radioactivity uptake in the tumour region, β-imaging of whole body section ([4]; group 1, 4 hours post injection): important uptake of the labelled compound in this region; radioactivity uptake in the tumour region, β-imaging of whole body section ([4]; group 2, 125-fold excess of RC-121, 4 hours post injection): absence of radioactivity uptake

What does the source list for “TGRAKRRMQYNRR (Ac-TGRAKRRMQYNRR-NH2) [SEQ ID NO: 1, N-acetylated, C-amidated tridecamer, residue 29 to 41 of the protein Ubiquicidine]”?
initial [TcO]3+ complex observed ([2]; 1 mM Cysteine): more than 95%; initial [TcO]3+ complex observed ([2]; 15 mM Cysteine): 69%; initial [TcO]3+ complex observed ([2]; 100 mM Cysteine): 10%
